Data reported in US20230265211A1 (published 2023).

B1: PS003biv (VHH)
chain: QVQLQESGGGLVQAGGSLRLSCAASGRTFSSYAMGWVRQAPGKEREFVAAISYNGGRTNYADSVKGRFTISRDNAKNTGYLQMNSLKPEDTAVYYCAANPRMWGSVDFRSWGQGTQVTVSSGGGSGGGSGGGSGGGSQVQLQESGGGLVQAGGSLRLSCAASGRTFSSYAMGWVRQAPGKEREFVAAISYNGGRTNYADSVKGRFTISRDNAKNTGYLQMNSLKPEDTAVYYCAANPRMWGSVDFRSWGQGTQVTVSS
notes: also called bivalent PS003; not shown: N-terminal His6-tag from the pET28 format; C-terminal haemagglutinin (HA)-tag
B2: PS003 (VHH)
VHH: QVQLQESGGGLVQAGGSLRLSCAASGRTFSSYAMGWVRQAPGKEREFVAAISYNGGRTNYADSVKGRFTISRDNAKNTGYLQMNSLKPEDTAVYYCAANPRMWGSVDFRSWGQGTQVTVSS
notes: Llama VHH selected by phage display on rhPS; Purified form expressed from pET28 in E. coli with N-terminal His6-tag and C-terminal HA-tag; also called PS003 nanobody; monovalent PS003; not shown: N-terminal His6-tag from the pET28 format; C-terminal haemagglutinin (HA)-tag

Assays:
[1] = molecular target: T1, recombinant human PS (rhPS) (human, UniProt P07225 42-676); assay: cell-based or functional assay
T1 sequence (looked up): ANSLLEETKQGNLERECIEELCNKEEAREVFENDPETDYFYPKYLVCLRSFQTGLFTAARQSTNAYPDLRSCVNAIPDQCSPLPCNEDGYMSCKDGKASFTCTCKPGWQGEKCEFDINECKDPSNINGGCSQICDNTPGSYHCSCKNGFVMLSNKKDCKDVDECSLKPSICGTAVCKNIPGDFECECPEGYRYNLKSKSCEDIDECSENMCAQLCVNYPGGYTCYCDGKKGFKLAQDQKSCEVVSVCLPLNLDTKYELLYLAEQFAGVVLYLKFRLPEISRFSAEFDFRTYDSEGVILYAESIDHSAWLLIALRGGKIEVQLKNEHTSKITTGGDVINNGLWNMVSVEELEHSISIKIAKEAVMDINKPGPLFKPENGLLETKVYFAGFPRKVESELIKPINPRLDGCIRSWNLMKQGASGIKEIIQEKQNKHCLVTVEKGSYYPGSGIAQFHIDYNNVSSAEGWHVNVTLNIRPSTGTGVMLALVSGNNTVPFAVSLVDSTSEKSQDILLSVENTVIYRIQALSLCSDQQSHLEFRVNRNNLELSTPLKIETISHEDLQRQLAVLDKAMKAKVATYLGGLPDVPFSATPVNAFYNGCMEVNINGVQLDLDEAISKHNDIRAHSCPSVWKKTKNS

[2] = molecular target: T2, recombinant murine PS (rmPS) (murine, UniProt Q08761 42-675); assay: direct ELISA on immobilized rmPS (legend of FIG. 11)
T2 construct: also called recombinant murine protein S
T2 sequence (looked up): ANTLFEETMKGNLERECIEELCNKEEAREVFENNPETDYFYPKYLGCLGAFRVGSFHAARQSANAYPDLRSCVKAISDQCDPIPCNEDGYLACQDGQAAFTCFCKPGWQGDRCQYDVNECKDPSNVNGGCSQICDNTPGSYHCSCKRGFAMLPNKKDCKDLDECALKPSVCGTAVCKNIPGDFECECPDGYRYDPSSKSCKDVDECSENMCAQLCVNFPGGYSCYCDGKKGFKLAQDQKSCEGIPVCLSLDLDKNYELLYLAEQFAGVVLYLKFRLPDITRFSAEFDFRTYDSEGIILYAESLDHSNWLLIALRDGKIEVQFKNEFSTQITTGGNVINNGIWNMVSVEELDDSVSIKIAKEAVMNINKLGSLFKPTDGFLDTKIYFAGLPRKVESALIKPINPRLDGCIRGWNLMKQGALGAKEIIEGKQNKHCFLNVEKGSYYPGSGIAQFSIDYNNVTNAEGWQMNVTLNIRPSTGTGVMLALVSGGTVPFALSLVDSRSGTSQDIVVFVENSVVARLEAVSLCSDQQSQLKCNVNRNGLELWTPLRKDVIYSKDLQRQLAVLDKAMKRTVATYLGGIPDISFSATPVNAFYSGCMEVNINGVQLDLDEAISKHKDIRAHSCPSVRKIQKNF
From the text: FIG. 11: Comparison of PS003biv and PS004biv binding to immobilized recombinant murine PS in direct ELISA. PS004biv is an in-house anti-human PS nanobody generated from a monovalent nanobody (PS004) identified after a selection on rhPS immobilized onto ELISA wells. PS004biv strongly binds to rhPS in direct ELISA but, in contrast to PS003biv, its epitope is localized within the N-terminal part of PS and not within the SHBG-like domain of PS (data not shown). The binding of PS003biv and PS004biv to immobilized rmPS was analyzed by ELISA.
As for rhPS, recombinant murine PS (rmPS) was expressed in HEK293 cells in the presence of 10 μg/mL vitamin K1, and purified by a two-step anion-exchange chromatography, as previously described (Fernandez et al. 2009). rmPS (60 μL at 10 μg/mL in TBS containing 5 mM CaCl₂) was immobilized onto 96-well NUNC Maxisorp plates, for 16 h at 4° C. Wells were washed with 3×200 μL of washing buffer (TBS containing 5 mM CaCl₂) and 0.1% Tween-20) and wells were blocked for 1 h at room temperature with TBS containing 5 mM CaCl₂ and 5% BSA. Wells were washed with 3×200 μL of washing buffer and increasing concentrations of PS003biv and PS004biv (0-50 nM in TBS containing 5 mM CaCl₂ and 1% BSA, 50 μL/well) were incubated for 1 h at room temperature. […]

[3] = molecular target: T1, recombinant human PS (rhPS); assay: ratio of ELISA-derived KD values, reference PS003
Experimental: (§1) To further compare the ability of PS003 and PS003biv to bind to PS, the affinity of PS003 and PS003biv for rhPS was estimated as described (Beatty et al. J Immunol Methods 1987), by obtaining binding curves on rhPS immobilized at increasing concentrations (0.6, 1.25, 2.5 and 5 μg/mL in TBS containing 5 mM CaCl₂) in three individual experiments done in simplicate. For each nanobody, the dissociation constant (KD) was determined by using a formula based on the Law of Mass Action.

[4] = molecular target: T3, recombinant human Gas6 (rhGas6) (human, UniProt Q14393 49-678, limits assumed); assay: direct ELISA on immobilized rhGas6, anti-His6 detection
T3 sequence (looked up): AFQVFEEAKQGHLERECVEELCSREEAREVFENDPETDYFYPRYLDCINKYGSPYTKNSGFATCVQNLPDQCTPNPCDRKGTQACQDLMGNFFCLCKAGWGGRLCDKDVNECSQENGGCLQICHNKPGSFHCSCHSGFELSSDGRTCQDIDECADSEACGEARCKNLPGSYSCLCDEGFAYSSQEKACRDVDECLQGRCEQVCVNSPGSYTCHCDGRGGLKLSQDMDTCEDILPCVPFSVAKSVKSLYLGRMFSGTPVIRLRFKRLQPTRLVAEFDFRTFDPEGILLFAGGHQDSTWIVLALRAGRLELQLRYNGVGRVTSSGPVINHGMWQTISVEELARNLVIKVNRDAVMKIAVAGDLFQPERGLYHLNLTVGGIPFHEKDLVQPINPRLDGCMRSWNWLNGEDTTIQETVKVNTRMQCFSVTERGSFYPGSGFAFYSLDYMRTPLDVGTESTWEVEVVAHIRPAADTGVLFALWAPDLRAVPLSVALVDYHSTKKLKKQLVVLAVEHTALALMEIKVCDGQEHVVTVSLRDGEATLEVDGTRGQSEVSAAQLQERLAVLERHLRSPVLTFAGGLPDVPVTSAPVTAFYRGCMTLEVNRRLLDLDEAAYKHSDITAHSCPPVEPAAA
Experimental: FIG. 7: Epitope mapping of PS003biv and specificity of PS003biv for PS. Recombinant human PS (rhPS), a recombinant form of the PS SHBG-like region alone (rSHBG)), recombinant human Gas6 (rhGas6), or BSA (60 μL at 10 μg/mL in TBS containing 5 mM CaCl₂) were immobilized onto ELISA wells, and the binding of PS003biv (0.5 nM in TBS-0.1% Tween-5 mM CaCl₂)) was analyzed using a peroxidase-conjugated polyclonal anti-His6 tag antibody. The results are expressed as the percentage of the Abs_{450 nm} obtained on rhPS. Three individual experiments were done in simplicate.
Epitope mapping of PS003biv and specificity of PS003biv for PS rhPS, a recombinant form of the PS SHBG-like region alone (rSHBG) (Saposnik et al. 2003), recombinant human Gas6 (rhGas6), or BSA (60 μL at 10 μg/mL in 50 mM Tris, 150 mM NaCl, pH 7.4 (TBS) containing 5 mM CaCl₂) were immobilized onto 96-well NUNC Maxisorp plates, for 16 h at 4° C. Wells were washed with 3×200 μL of washing buffer (TBS containing 5 mM CaCl₂ and 0.1% Tween-20) and wells were blocked for 1 h at room temperature with TBS containing 5 mM CaCl₂ and 5% BSA. Wells were washed with 3×200 μL of washing buffer and 0.5 nM PS003biv (in TBS containing 5 mM CaCl₂, 0.1% Tween-20 and 2% BSA, 50 μL/well) were incubated for 1 h at room temperature. […] The results are expressed as the percentage of the Abs_{450 nm} obtained on rhPS. […]

[5] = molecular target: T1, recombinant human PS (rhPS); assay: ELISA on rhPS immobilized at 0.6, 1.25, 2.5 and 5 µg/mL, method of Beatty et al. 1987
Experimental: as §1, with “FIG. 6: Comparison of PS003 and PS003biv binding to immobilized PS in direct ELISA. rhPS (60 μL at 2.5 μg/mL in TBS containing 5 mM CaCl₂)) was immobilized onto ELISA wells, and the binding of PS003 and PS003biv (0-200 nM) was analyzed with a peroxidase-conjugated polyclonal anti-His6 tag antibody. Three individual experiments were done in simplicate, and the results are expressed as percentage of maximal binding for each nanobody. […] To” for “To”, “obtaining similar” for “obtaining”
as §1, with “For each nanobody, the dissociation constant (KD) was determined by using a formula based on the Law of Mass Action.” left out

[6] = molecular target: T3, recombinant human Gas6 (rhGas6); assay: direct ELISA on immobilized protein, anti-HA detection
Experimental: Vitamin K-dependent Gas6 is highly homologous to PS (47% overall homology) and, in contrast to other vitamin K-dependent proteins, also contains a SHBG-like domain. To further confirm the specificity of PS003 to PS, rhPS and rh Gas6 (60 μL, at 10 μg/mL in TBS containing 5 mM CaCl₂) were immobilized onto 96-well NUNC Maxisorp plates for 16 h at 4° C. Wells were washed with 3×200 μL of washing buffer (TBS containing 5 mM CaCl₂ and 0.1% Tween-20) and wells were blocked for 1 h at room temperature in TBS containing 5 mM CaCl₂ and 5% BSA. Wells were washed with 3×200 μL of washing buffer and increasing concentrations of PS003 (0-200 nM in TBS containing 5 mM CaCl₂ and 1% BSA, 50 μL/well) was incubated for 1 h at room temperature. Wells were washed with 3×200 μL of washing buffer, and a peroxidase-conjugated polyclonal anti-HA tag antibody (Abcam, 1 μg/mL in TBS containing 5 mM CaCl₂ and 1% BSA, 50 μL/well) was incubated for 1 h at room temperature. Wells were washed with 3×200 μL of washing buffer and 50 μL of TMB was added. Reactions were stopped by the addition of 50 μL of 2M H₂SO₄.

Binder | clotting times in APTT-based APC-cofactor activity plasma clotting assay (STACLOT PS); 6 nM rhPS, 2 µM nanobody [1] | binding result [2] | fold higher affinity than PS003 [3] | binding result [4] | Kd [5] | binding result [6]
B1 | 3.6 fold | binds | 1.9 fold | no binding (tested: 0.5 nM) | 13.8 nM | –
B2 | 2.8 fold | – | – | – | 26.8 nM | no binding (tested: 20 nM)
